Assay results taken from US20240002497A1 (Merck Sharp & Dohme, published 2024).
Read-outs that look alike come from different tables or passages of the source.

B1: F0103265A11 (parental)-FLAG-HIS6 (VHH)
VHH: EVQLVESGGGLVQPGGSLRLSCAASGMLFNANTQGWYRQAPGKQRELVAFIFSGGYTNYVDSVKGRFTISRDNAKRTMYLQMNSLKPEDSAIYYCSLSRYLGQGTLVTVSS
notes: also called F01033265A11
B2: F0103262B06 (parental)-FLAG-HIS6 (VHH)
VHH: EVQLVESGGGLVQPGGSLRLSCAGSTRTFSTYAMGWFRQAPGREREFVAHINFSGSSTRYADSVKGRFTISRDNAKNMGYLQMNSLKPEDTAVYYCAARWVAGPPRYDYEYWGQGTLVTVSS
B3: F0103387G05 (parental)-FLAG-HIS6 (VHH)
VHH: EVQLVESGGGLVQAGGSLRLSCDASGRILRIGYMRWHRQGAGKQREFVARITDDSATDYADSVKGRFTISRDNAKNTVYLQMNNLNPEDTAVYYCEALVTASVRGGSIHSGTYWGRGTLVTVSS
B4: F010301647 (VHH)
VHH: EVQLVESGGGVVQPGGSLRLSCDASGRILRIGYMRWHRQGAGKQRELVARITDDSATDYADSVKGRFTISRDNAKNTVYLQMNSLRPEDTALYYCEALVTASVRGGSIHSGTYWGQGTLVTVSS
notes: also called F0103387G05(L11V, A14P, F47L, N82bS, N83R, V89L, R105Q); F47L
B5: F0103362B08 (parental)-FLAG-HIS6 (VHH)
VHH: EVQLVESGGGLVQAGGSLRLSCAASVRPFSTSAMGWFRQAPEKEREAVAGILWNGIVTYYADSVKGRFTISRDNAKNEVYLQMNKLKPEDTAVYYCALDRDYGGRSFSAYEYEYWGQGTLVTVSS

Tests used:
huNav1.7α+β1 [1] = molecular target: T1, huNav1.7α+β1 (human, UniProt Q15858 1-1988; Q07699 19-218); assay: binding FACS, HEK293 cells
T1 construct: also called huNav1.7-beta1; HEKa/β1
Summary of the method: (§1)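 Purified FLAG3-tagged ISVDs incubated with cells (1×10^5 cells/well) in PBS/10% FBS/NaN₃ for 30 minutes at 4° C. Bound ISVD detected via murine anti-Flag by flow cytometry; dead cells excluded with 1 μg/mL propidium iodide. Crude periplasmic extracts were also screened for huNav1.7α binding without huNav1.5a binding.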

[2] = molecular target: T2, huNav1.7(N146S, V194I, F276V, R277Q, E281V, V331M, E504D, D507E, S508N, N533S)-β1-β2-β3 (human, UniProt Q15858 1-1988; Q07699 19-218; O60939 30-215; Q9NY72 23-215); assay: FACS on transiently transfected HEK293T cells
T2 construct: Transiently on HEK293T cells; The text prints V1941 for V194I; also called chimeric variant of huNav1.7α with all DI huNav1.7α-rhNav1.7α polymorphisms
Procedure: (§2) Binding of the ISVDs to cell-expressed Nav1.7α was detected via murine anti-Flag (Sigma, catalog #F1804). Briefly, cells were resuspended in FACS buffer (PBS, 10% FBS, NaN₃) and transferred to a 96-well V-bottom plate at 1×10^5 cells/well. Purified FLAG3-tagged ISVD was diluted in FACS buffer and added to the cells for 30 minutes at 4° C. […] Prior to the read-out, the samples were resuspended in 1 μg/mL propidium iodide (Sigma, catalog #P4170) to exclude dead cells. Between each step, the cells were centrifuged for 5 minutes at 200 grams and washed with 100 μL/well FACS buffer.
FACS binding studies (as described above) were performed on HEK293T cells transiently transfected with a chimeric variant of huNav1.7α in which all the huNav1.7α-rhNav1.7α polymorphisms of DI are present (N146S, V1941, F276V, R277Q, E281V, V331M, E504D, D507E, S508N, N533S). Replacing the huNav1.7α DI sequence for that of rhNav1.7α is sufficient to abolish the binding of F0103262CO2, F0103265B04, F0103262B06, and F0103265A11 to huNav1.7α, recapitulating the absence of binding on rhNav1.7α (see FIGS. 21A-21B).

huNav1.7α+β1 [3] = molecular target: T1, huNav1.7α+β1; assay: binding FACS, HEKa/β1 cells
Summary of the method: (§3)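 Cells in FACS buffer (PBS, 10% FBS, NaN₃) were incubated with purified FLAG3-tagged ISVD for 30 minutes at 4° C. Bound ISVD was detected by flow cytometry with murine anti-Flag, and dead cells were excluded with 1 μg/mL propidium iodide.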

huNav1.7α = molecular target: T3, huNav1.7α (human, UniProt Q15858 1-1988); assay: binding FACS, HEKa cells
T3 construct: HEK cells expressing the α subunit alone; also called HEKa; HEK huNav1.7α
Summary of the method: as §3

[4] = molecular target: T4, huNav157chimera14+β1-β2-β3 (human, UniProt Q07699 19-218; O60939 30-215; Q9NY72 23-215); assay: binding FACS, HEK FlpIn cells
T4 construct: HEK FlpIn line; also called huNav157 chimera 14-beta1-beta2-beta3; Nav157ch14-β1-β2-β3
Summary of the method: as §1

huNav1.5α+β1-β2-β3 = molecular target: T5, huNav1.5α+β1-β2-β3 (human, UniProt Q14524 1-2016; A5A6L6 19-218; O60939 30-215; Q2KI11 23-215); assay: binding FACS, HEK FlpIn cells
T5 construct: in the cell P2A cleaves it into α, β1, β2, β3; also called huNav1.5-beta1-beta2-beta3
Summary of the method: as §1

huNav1.7α+β1-β2-β3 [5] = molecular target: T6, huNav1.7α+β1-β2-β3 (human, UniProt Q15858 1-1988; Q07699 19-218; O60939 30-215; Q9NY72 23-215); assay: binding FACS, HEK FlpIn cells
T6 construct: 5N11S variant; also called huNav1.7-beta1-beta2-beta3; huNav1.7α+Navβ1-Navβ2-Navβ3
Summary of the method: as §1

rhNav1.7α+β1-β2-β3 = molecular target: T7, rhNav1.7α+β1-β2-β3 (rhesus monkey α subunit with human β …); assay: binding FACS, CHO FlpIn cells
T7 construct: P2A cleaves it into α, β1, β2, β3; also called rhNav1.7-beta1-beta2-beta3
Summary of the method: as §1

huNav1.7α+β1-β2-β3 [6] = molecular target: T6, huNav1.7α+β1-β2-β3; assay: binding FACS, CHO FlpIn cells
Summary of the method: as §1

huNav1.7α+β1-β2-β3 [7] = molecular target: T6, huNav1.7α+β1-β2-β3; assay: binding FACS, HEK FlpIn cells; remark: listed apart in the source
huNav1.6α = molecular target: T8, huNav1.6α (human, UniProt Q9UQD0 1-1980); assay: binding FACS on stable cell lines
T8 construct: also called huNav1.6 (alpha subunit)

huNav1.8α = molecular target: T9, huNav1.8α (human, UniProt Q9Y5Y9 1-1956); assay: binding FACS on stable cell lines
T9 construct: also called huNav1.8 (alpha subunit)
T9 sequence (Q9Y5Y9 whole entry): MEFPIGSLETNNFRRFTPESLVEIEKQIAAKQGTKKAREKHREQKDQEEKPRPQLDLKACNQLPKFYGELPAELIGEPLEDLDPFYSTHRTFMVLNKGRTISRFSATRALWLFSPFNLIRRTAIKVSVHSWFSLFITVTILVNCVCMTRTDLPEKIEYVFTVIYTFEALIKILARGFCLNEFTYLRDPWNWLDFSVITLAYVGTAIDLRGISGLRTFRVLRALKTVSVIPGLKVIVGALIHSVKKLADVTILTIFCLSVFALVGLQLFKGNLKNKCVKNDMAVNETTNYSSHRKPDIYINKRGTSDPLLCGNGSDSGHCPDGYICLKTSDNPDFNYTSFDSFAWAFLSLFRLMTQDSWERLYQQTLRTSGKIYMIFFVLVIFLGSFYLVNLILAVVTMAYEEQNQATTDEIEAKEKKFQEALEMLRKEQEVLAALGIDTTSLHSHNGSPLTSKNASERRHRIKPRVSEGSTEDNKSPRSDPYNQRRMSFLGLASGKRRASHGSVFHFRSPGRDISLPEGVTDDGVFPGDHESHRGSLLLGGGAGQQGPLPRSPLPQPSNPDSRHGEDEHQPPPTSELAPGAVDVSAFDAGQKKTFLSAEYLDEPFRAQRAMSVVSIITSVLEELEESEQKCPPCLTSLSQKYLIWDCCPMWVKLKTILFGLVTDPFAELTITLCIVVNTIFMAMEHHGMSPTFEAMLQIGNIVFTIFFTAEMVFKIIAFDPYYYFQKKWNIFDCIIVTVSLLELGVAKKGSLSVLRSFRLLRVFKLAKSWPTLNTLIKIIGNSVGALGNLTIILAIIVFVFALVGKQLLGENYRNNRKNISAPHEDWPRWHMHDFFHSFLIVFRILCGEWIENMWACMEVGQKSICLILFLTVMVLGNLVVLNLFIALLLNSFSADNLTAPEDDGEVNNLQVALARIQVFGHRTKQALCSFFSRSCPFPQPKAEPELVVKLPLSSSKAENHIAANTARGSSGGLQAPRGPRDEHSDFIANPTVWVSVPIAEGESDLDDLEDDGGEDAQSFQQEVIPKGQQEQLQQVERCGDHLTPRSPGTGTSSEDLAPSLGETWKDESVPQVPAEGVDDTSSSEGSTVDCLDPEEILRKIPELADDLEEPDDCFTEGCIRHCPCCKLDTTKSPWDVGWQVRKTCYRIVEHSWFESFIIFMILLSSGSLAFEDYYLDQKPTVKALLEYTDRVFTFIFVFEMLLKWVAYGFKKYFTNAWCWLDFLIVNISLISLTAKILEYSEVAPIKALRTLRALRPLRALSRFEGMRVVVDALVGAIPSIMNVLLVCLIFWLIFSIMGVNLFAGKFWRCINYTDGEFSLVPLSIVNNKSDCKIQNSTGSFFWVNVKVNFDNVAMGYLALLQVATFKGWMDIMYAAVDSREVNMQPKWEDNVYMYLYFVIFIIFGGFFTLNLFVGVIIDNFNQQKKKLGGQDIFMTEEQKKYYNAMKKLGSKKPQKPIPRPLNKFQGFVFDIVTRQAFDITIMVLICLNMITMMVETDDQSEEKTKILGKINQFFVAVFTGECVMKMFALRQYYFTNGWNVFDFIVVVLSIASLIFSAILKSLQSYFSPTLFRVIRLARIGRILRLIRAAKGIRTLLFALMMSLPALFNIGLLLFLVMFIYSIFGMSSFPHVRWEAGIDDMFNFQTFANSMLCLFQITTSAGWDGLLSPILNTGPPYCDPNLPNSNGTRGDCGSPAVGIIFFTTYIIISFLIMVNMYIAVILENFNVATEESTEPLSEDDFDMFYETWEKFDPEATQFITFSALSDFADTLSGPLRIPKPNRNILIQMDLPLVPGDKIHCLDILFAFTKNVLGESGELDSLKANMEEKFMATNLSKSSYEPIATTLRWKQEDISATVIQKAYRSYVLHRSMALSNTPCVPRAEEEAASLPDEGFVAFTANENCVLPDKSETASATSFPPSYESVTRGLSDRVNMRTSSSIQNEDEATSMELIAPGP

huNav1.4α = molecular target: T10, huNav1.4α (human, UniProt P35499 1-1836); assay: binding FACS on stable cell lines
T10 construct: also called huNav1.4 (alpha subunit)

huNav1.2α = molecular target: T11, huNav1.2α (human, UniProt Q99250 1-2005); assay: binding FACS on stable cell lines
T11 construct: also called huNav1.2 (alpha subunit)
T11 sequence (Q99250 whole entry): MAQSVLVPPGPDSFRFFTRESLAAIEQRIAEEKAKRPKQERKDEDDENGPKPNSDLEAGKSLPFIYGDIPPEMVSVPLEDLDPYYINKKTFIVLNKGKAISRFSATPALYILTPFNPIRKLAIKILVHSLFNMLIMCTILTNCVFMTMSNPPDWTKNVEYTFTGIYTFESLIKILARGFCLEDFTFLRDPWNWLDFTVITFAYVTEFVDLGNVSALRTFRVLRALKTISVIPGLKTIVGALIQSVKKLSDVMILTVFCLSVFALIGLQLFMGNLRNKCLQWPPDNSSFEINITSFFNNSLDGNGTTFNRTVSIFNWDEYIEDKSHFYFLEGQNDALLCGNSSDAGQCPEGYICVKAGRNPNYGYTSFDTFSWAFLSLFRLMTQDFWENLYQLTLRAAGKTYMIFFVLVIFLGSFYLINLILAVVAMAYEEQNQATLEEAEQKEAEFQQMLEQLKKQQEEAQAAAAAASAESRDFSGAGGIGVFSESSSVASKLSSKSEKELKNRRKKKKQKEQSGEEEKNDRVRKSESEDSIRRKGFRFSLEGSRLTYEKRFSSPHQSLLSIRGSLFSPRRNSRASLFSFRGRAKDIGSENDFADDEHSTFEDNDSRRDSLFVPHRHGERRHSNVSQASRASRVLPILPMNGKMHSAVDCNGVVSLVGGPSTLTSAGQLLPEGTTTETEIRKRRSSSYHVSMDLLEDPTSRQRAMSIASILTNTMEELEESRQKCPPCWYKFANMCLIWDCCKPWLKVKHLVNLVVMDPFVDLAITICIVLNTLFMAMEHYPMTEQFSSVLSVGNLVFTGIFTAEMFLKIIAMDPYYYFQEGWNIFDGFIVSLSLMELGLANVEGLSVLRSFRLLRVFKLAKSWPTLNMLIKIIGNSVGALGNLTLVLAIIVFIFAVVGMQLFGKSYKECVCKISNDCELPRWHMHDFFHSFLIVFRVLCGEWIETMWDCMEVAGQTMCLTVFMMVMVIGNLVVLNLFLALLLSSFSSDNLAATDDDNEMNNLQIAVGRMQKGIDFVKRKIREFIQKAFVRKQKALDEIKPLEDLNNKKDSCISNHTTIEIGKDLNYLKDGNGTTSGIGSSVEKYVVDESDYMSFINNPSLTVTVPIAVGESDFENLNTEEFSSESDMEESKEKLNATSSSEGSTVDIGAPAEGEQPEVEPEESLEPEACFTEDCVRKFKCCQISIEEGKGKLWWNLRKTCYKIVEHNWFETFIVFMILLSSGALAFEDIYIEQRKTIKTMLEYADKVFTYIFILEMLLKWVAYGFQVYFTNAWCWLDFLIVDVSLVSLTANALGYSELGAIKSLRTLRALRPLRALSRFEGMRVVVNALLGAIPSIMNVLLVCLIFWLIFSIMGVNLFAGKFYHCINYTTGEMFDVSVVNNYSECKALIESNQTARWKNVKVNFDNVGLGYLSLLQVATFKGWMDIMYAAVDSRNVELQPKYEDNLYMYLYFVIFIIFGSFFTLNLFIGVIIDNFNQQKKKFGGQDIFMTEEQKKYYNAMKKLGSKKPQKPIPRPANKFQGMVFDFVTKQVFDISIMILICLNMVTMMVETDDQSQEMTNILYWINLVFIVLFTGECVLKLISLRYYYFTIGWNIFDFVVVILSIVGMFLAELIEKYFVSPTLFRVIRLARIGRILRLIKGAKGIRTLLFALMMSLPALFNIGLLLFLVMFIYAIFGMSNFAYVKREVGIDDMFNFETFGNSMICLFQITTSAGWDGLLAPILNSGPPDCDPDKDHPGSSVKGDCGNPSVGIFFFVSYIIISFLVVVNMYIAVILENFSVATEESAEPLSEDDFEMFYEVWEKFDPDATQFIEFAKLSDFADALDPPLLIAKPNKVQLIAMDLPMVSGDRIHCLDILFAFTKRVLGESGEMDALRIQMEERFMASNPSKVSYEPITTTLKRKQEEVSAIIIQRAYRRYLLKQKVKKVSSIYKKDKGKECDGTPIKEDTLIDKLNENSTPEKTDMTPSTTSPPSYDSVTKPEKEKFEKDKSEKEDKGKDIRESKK

huNav1.3α = molecular target: T12, huNav1.3α (human, UniProt Q9NY46 1-2000); assay: binding FACS on stable cell lines
T12 construct: also called huNav1.3 (alpha subunit)

huNav1.1α = huNav1.1α (human, UniProt P35498 1-2009); assay: binding FACS on stable cell lines
[8] = molecular target: T13, huNav157 chimera 14 + β1-β2-β3 (human); assay: binding FACS, HEK FlpIn cells
T13 construct: Chimera of huNav1.7α (extracellular loops and transmembrane helices) and huNav1.5α (intracellular loops); also called Nav157ch14-β1-β2-β3; huNav157 chimera 14-beta1-beta2-beta3

huNav157 chimera 14 [9] = molecular target: T14, huNav157 chimera 14 (human); assay: binding FACS, HEK FlpIn cells
T14 construct: Chimera without β subunits; also called Nav157ch14

[10] = molecular target: T15, huNav1.7α + β1-β2-β3 (human Nav1.7α co-expressed with Navβ1, Navβ2 and Navβ3) (human); assay: binding FACS, HEK FlpIn cells
T15 construct: also called huNav1.7-beta1-beta2-beta3

[11] = molecular target: T13, huNav157 chimera 14 + β1-β2-β3; assay: binding FACS, HEK FlpIn cells; remark: listed apart in the source
huNav157 chimera 14 [12] = molecular target: T14, huNav157 chimera 14; assay: binding FACS, HEK FlpIn cells; remark: listed apart in the source
[13] = molecular target: T16, huNav1.7α + β1 (human Nav1.7α co-expressed with Navβ1) (human, UniProt Q15858 1-1988; Q07699 19-218); assay: binding FACS, HEKa/β1 cells
T16 construct: also called HEK293 human Nav1.7α + β1; HEKa/β1 Nav1.7α

[14] = molecular target: T17, huNav1.7α (human Nav1.7 alpha subunit, expressed without β subunits) (human, UniProt Q15858 1-1988); assay: binding FACS, HEKa cells
T17 construct: also called HEK293 human Nav1.7α; HEKa Nav1.7α

[15] = molecular target: T16, huNav1.7α + β1 (human Nav1.7α …); assay: binding FACS, HEKa/β1 cells; remark: listed apart in the source
[16] = molecular target: T17, huNav1.7α (human Nav1.7 alpha subunit, …); assay: binding FACS, HEKa cells; remark: listed apart in the source
[17] = molecular target: T17, huNav1.7α (human Nav1.7 alpha subunit, …); assay: binding FACS, huNav1.7α without β; minus = weaker than reference
[18] = molecular target: T4, huNav157chimera14+β1-β2-β3; assay: binding FACS with purified FLAG3-HIS6 tagged ISVDs
Procedure: as §2
Crude periplasmic extracts containing ISVDs from phage display selections (as described above) were screened in FACS for binding to huNav1.7α but not to huNav1.5a. […] As used in Table 8, the drawings, and throughout the description, Navβ1, Navβ2, and Navβ3 are human homologs unless specifically identified otherwise.

| Binder | EC50 (huNav1.7α+β1 [1]) [nM] | binding result [2] | EC50 [4] [nM] | binding result (huNav1.5α+β1-β2-β3) | EC50 (huNav1.7α+β1-β2-β3 [5]) [nM] | binding result (rhNav1.7α+β1-β2-β3) | EC50 (huNav1.7α+β1-β2-β3 [6]) [nM] | binding result (huNav1.6α) | binding result (huNav1.8α) | binding result (huNav1.4α) | binding result (huNav1.2α) | binding result (huNav1.3α) | binding result (huNav1.1α) | EC50 [11] [nM] | Bmax (huNav157 chimera 14 [12]) [%] | EC50 (huNav157 chimera 14 [12]) [nM] | EC50 [13] [nM] | Bmax [16] [%] | EC50 [16] [nM] | also measured |
| --- | --- | --- | --- | --- | --- | --- | --- | --- | --- | --- | --- | --- | --- | --- | --- | --- | --- | --- | --- | --- |
| B1 | 8.4 | no binding (tested: 1 µM) | 34 | no binding | 37 | no binding | 66 | no binding | no binding | no binding | no binding | no binding | no binding |  |  |  |  |  |  | Bmax relative to '535 (huNav1.7α+β1 [3]): 34%; EC50 (huNav1.7α+β1 [3]): 11 nM; binding result (huNav1.7α): no binding; EC50 (huNav1.7α+β1-β2-β3 [7]): 77 nM |
| B2 | 20 | no binding (tested: 1 µM) | 16 | no binding | 25 | no binding | 19 | no binding | no binding | no binding | no binding | no binding | no binding |  |  |  |  |  |  |  |
| B3 |  |  |  |  |  |  |  |  |  |  |  |  |  | 3.6 | 100 | 2.8 | 1.9 | 100 | 3.1 | EC50 [8]: 3.6 nM; EC50 (huNav157 chimera 14 [9]): 2.8 nM; EC50 [10]: 2.7 nM; EC50 [14]: 3.1 nM; EC50 [15]: 1.9 nM |
| B4 |  |  |  |  |  |  |  |  |  |  |  |  |  | 4.7 | 80 | 12 | 4 | 75 | 8 | EC50 fold change compared to reference [17]: -2 fold |
| B5 | 59 |  |  | no binding | 42 | no binding | 110 | no binding | no binding | no binding | no binding | no binding | no binding |  |  |  |  |  |  | binding result [18]: binds |
